Our source for the stoichiometry N values is publication PMC3423370.

In test [1] the target is Biomphalaria glabrata acetylcholine-binding protein (BgAChBP), native rosette protein from hemolymph (Biomphalaria glabrata). The experiment in a line: cryo-EM structure; native rosette protein at 1.2 mg/ml vitrified on C-flat holey carbon grids; 9770 single particles, icosahedral symmetry, resolution ~6 Å (FSC0.5 5.9 Å).
Test [2] shares this target. The experiment in a line: non-reducing SDS-PAGE; chromatographically enriched native BgAChBP under non-reducing against reducing conditions; disulfide-linked subunit dimers.
The target in test [3] is Recombinant BgAChBP2 (Biomphalaria glabrata). The experiment in a line: negative-stain electron microscopy; refolded recombinant protein, 20 mM Tris-HCl pH 8.0 with 50 mM imidazole; 2% uranyl acetate; for BgAChBP1 a 3D reconstruction (~20 Å) from ~3000 negatively stained particles.

By stoichiometry N is commonly meant the number of molecules, sites or subunits per partner or assembly. Turning to “Biomphalaria glabrata acetylcholine-binding protein (BgAChBP), native rosette protein from hemolymph (complex)”, the stoichiometry N stood at 60 in test [1] and 2 in test [2].

Regarding Recombinant BgAChBP2 (natural protein), the stoichiometry N in test [3] was determined as 5.
